B1: alcohol dehydrogenase (enzyme, UniProt P00330 1-348, looked up)
chain: MSIPETQKGVIFYESHGKLEYKDIPVPKPKANELLINVKYSGVCHTDLHAWHGDWPLPVKLPLVGGHEGAGVVVGMGENVKGWKIGDYAGIKWLNGSCMACEYCELGNESNCPHADLSGYTHDGSFQQYATADAVQAAHIPQGTDLAQVAPILCAGITVYKALKSANLMAGHWVAISGAAGGLGSLAVQYAKAMGYRVLGIDGGEGKEELFRSIGGEVFIDFTKEKDIVGAVLKATDGGAHGVINVSVSEAAIEASTRYVRANGTTVLVGMPAGAKCCSDVFNQVVKSISIVGSYVGNRADTREALDFFARGLVKSPIKVVGLSTLPEIYEKMEKGQIVGRYVVDTSK
notes: The tetramer mass fits S. cerevisiae ADH1; this is surmised, the source is in the supplement; also called ADH
B2: catalase (enzyme, UniProt P00432 1-527, looked up)
chain: MADNRDPASDQMKHWKEQRAAQKPDVLTTGGGNPVGDKLNSLTVGPRGPLLVQDVVFTDEMAHFDRERIPERVVHAKGAGAFGYFEVTHDITRYSKAKVFEHIGKRTPIAVRFSTVAGESGSADTVRDPRGFAVKFYTEDGNWDLVGNNTPIFFIRDALLFPSFIHSQKRNPQTHLKDPDMVWDFWSLRPESLHQVSFLFSDRGIPDGHRHMNGYGSHTFKLVNANGEAVYCKFHYKTDQGIKNLSVEDAARLAHEDPDYGLRDLFNAIATGNYPSWTLYIQVMTFSEAEIFPFNPFDLTKVWPHGDYPLIPVGKLVLNRNPVNYFAEVEQLAFDPSNMPPGIEPSPDKMLQGRLFAYPDTHRHRLGPNYLQIPVNCPYRARVANYQRDGPMCMMDNQGGAPNYYPNSFSAPEHQPSALEHRTHFSGDVQRFNSANDDNVTQVRTFYLKVLNEEQRKRLCENIAGHLKDAQLFIQKKAVKNFSDVHPEYGSRIQALLDKYNEEKPKNAVHTYVQHGSHLSAREKANL
notes: Bovine liver catalase is surmised; the source is in the supplement

Target: the molecule itself
Assay: SEC + native MS; nanoflow SEC-nMS of reference proteins: 50 nL of 1 mg mL^-1 protein injected, 200 um ID capillary SEC column, 0.5 uL min^-1, eluted with 200 mM AmAc; isCID varies by protein

Protein | stoichiometry N
B1 | 4
B2 | 4
